Patent publication US20150173367
pKd: −log10 of the molar value.

Test system: RepN (N-terminal 191 residues of TYLCV Rep) (Tomato yellow leaf curl virus)
Assay: EMSA
Conditions: 10 mM Tris-HCl, 100 mM NaCl, 5 mM MgCl2, 0.1 mM ZnCl2, pH 7.5, on ice

“TYLCV replication origin DNA containing Rep-binding direct repeats” showed a pKd of 7.52.
